Source: PMC4760772, “The Development of a Recombinant scFv Monoclonal Antibody Targeting Canine CD20 for Use in Comparative Medicine” (PLoS ONE, 2016)

T1: biotinylated canine CD20 peptide (biotin-SGSGNCDPANPSEKNSLSIQYCGS) (Canis lupus familiaris, biotin on the N-terminus)
T1 construct: spacer between the biotin and the CD20 stretch; also called biotinylated CD20 peptide
T1 chain: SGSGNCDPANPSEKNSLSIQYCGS

T2: biotinylated canine CD20 peptide (biotin-SGSGNCDPANPSEKNSLSIQYCGS) (canine, biotin on the N-terminus)
T2 peptide: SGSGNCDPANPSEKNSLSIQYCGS

T3: fluorescein-labeled peptide corresponding to human CD20 (NCEPANPSEKNSPSTQYCYS) (Homo sapiens (Human)., fluorescein (FITC) label, position not stated)
T3 construct: also called FITC tagged human CD20 peptide; fluorescent human CD20 peptide
T3 chain: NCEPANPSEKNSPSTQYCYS


Assays:
[1] = target: T1, biotinylated canine CD20 peptide …; experiment: BLI; Octet RED, as a1 but in the presence of DTT; relative Kd; details: both partners purified
[2] = target: T2, biotinylated canine CD20 peptide …; experiment: BLI; with DTT
[3] = target: T3, fluorescein-labeled peptide …; experiment: fluorescence polarisation; antibody titrated against 30 nM fluorescein-labeled human CD20 peptide in PBS, 0.05% Tween-20; 1 hr at room temperature, read at 21°C; purified mouse immunoglobulins subtracted as nonspecific binding; details: both partners purified
[4] = target: T4, canine CD20 protein in clinically-derived canine cells and tissue (Canis lupus familiaris (Dog) (Canis …, UniProt Q3C2E2)); experiment: immunostaining of cells or tissue; immunohistochemistry on formalin fixed paraffin embedded canine lymphoma tissue (tissue micro array), heat induced antigen retrieval; details: one partner purified
T4 construct: canine CD20 on normal B cells and B-cell lymphoma cells of dogs; also called membranous CD20; CD20 in canine tissue

[5] = target: T2, biotinylated canine CD20 peptide …; experiment: BLI; without DTT
[6] = target: T5, endogenous canine CD20 protein in 3132 canine lymphoma cells (Canis lupus familiaris (Dog) (Canis …, UniProt Q3C2E2)); experiment: immunoblot; lysates or chemical fractions of 3132 canine lymphoma cells, and lysates of H1299 cells transfected with human GFP-CD20, blotted with NCD1.2; details: one partner purified
T5 construct: canine CD20, endogenous protein; also called authentic canine CD20 protein

[7] = target: T6, bacterially expressed his-tagged canine CD20 protein (amino acids 140–190) (Canis lupus familiaris, UniProt Q3C2E2); experiment: immunoblot; purified his-tagged canine CD20 (140-190) after electrophoresis without and with DTT, blotted with NCD1.2; details: both partners purified
T6 construct: canine CD20, amino acids 140-190 comprising the extracellular domain; also called recombinant canine CD20 protein; His-tagged CD20 protein; source: bacterially expressed, purified by nickel chromatography

[8] = target: T1, biotinylated canine CD20 peptide …; experiment: BLI; Octet RED, biotinylated CD20 peptide on streptavidin biosensors, antibody 32 nM to 0.5 nM in solution, 30°C, PBS pH 7.4 with 0.02% Tween 20, 0.005% sodium azide, 100 μg/mL BSA; global fit 1:1; relative Kd; absence of DTT; details: both partners purified
[9] = target: T6, bacterially expressed his-tagged canine …; experiment: ELISA; CHO supernatants (diluted 1:40 or 1:80) on His-tagged CD20 protein or on biotinylated CD20 peptide; detected with peroxidase conjugated protein A, TMB, OD 450 nm; details: one partner purified

T6 sequence (Q3C2E2 140-190): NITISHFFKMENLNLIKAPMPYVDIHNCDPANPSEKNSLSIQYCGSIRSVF
T4 sequence (Q3C2E2 whole entry): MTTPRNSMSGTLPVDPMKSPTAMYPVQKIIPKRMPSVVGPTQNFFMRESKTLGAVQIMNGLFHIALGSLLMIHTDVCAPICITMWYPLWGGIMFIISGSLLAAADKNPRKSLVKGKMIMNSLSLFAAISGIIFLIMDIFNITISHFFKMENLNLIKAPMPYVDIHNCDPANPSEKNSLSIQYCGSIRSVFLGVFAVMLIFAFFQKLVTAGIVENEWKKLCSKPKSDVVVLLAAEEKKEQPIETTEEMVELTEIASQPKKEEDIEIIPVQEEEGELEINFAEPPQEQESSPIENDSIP
T5 sequence (Q3C2E2 whole entry): as above

Binder	Kd [1] [nM]	koff [2] [s⁻¹]	binding result [3]	binding result [4]	koff [5] [s⁻¹]	binding result [6]	binding result [7]	Kd [8] [nM]	binding result [9]
monoclonal antibody NCD1.2 (antibody, V domains shown, VH cloned from the NCD1.2 hybridoma, as the VH of m9 and m10 (scFv-3 and scFv-7; identical VH genes, identical CDRs); the first residues of the cloned VH come from degenerate PCR primers; constant region of a mouse IgG; VL as the VL of m9 (scFv-3) or of m10 (scFv-7); both light chain mRNAs are made by the hybridoma; mouse light chain constant region; not described; IgG; also called NCD1.2 MAB; …) VH: VESGGGLVQPGDSLRLSCATSGFTFTDYFMSWVRQPPGKSLEWLGLIRNKVNGYTAEYSASVKGRFTISRDNSRGILYLQMYTLRAEDSATYYCVRASTGTSFVYWGQGTLVTVSA VL: AAAFSNPVTLGTSVSISCRSSKSLLHRNGFTYLYWYLQRPGQSPQLLIYQMSNLASGVPDRFSSSGSGTDFTLRISRVEAEDVGVYYCAQNLELPFTFGGGTKLELK	0.31	3.41e-05	binds	binds	3.19e-05	binds	binds	0.34	–
scFv-3 secreted from CHO cells (scFv, V domains shown, VL of scFv-3, as in m9; linker, as in m9; VH of scFv-3, as in m9; Cloned into the KpnI-EcoRI sites of pCDNA3.1; also called scFv-3 supernatant) VH: EVNVVESGGGLVQPGDSLRLSCATSGFTFTDYFMSWVRQPPGKSLEWLGLIRNKVNGYTAEYSASVKGRFTISRDNSRGILYLQMYTLRAEDSATYYCVRASTGTSFVYWGQGTLVTVSA VL: DIVMTQPPAIMSASPGEKVTMTCSASSSVSYMHWYQQKSGTSPKRWIYDTSKLASGVPDRFSSSGSGTDFTLRISRVEAEDVGVYYCAQNLELPFTFGGGTKLEIK	–	–	–	–	–	–	–	–	binds
scFv-7 secreted from CHO cells (scFv, V domains shown, VL of scFv-7, as in m10; linker, as in m10; VH of scFv-7, as in m10; Cloned into the KpnI-EcoRI sites of pCDNA3.1; also called scFv-7 supernatant) VH: EVQGVESGGGLVQPGDSLRLSCATSGFTFTDYFMSWVRQPPGKSLEWLGLIRNKVNGYTAEYSASVKGRFTISRDNSRGILYLQMYTLRAEDSATYYCVRASTGTSFVYWGQGTLVTVSA VL: IVMTQAAAFSNPVTLGTSVSISCRSSKSLLHRGFTYLYWYLQRPGQSPQLLIYQMSNLASGVPDRFSSSGSGTDFTLRISRVEAEDVGVYYCAQNLELPFTFGGGTKLELK	–	–	–	–	–	–	–	–	binds
